From the supplement of paper PMC12042874
± gives the uncertainty stated by the source.

Assay: amyloid nucleation score (Sup35N fusion, yeast selection) (log enrichment); library NNK2; higher = more nucleation; inactive = no reads after selection
Summary of the method: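 Using DiMSum, nucleation scores were taken as the log enrichment of output over input reads, centred on the mode score of non-aggregating sequences. The input and output reads came from Illumina sequencing of plasmid inserts, with sequences under 100 input reads excluded. The yeast were psi-negative, expressed Sup35N fused to peptides of 20 random codons, were induced with 100 μM copper sulfate for 24 hours, and were grown 7 days at 30°C on medium lacking adenine and uracil.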

TRMVCSFRCQESVPEP and TRPLFTFRAMVDTRIHVFPM are within error of each other in amyloid nucleation score: 0.775 ± 0.8 for the first, 0.201 ± 0.8 for the second.

TRQLIYHWDKFSPHPAQFLT and TRRARSDSDLMCRDRVSVDN are within error of each other in amyloid nucleation score: 0.652 ± 0.64 for the first, -0.249 ± 0.35 for the second.

First: TRSRKWHRGS
Second: TRYRLDACRGHAWYSVFFLM
The amyloid nucleation score of the first is higher: 1.14 ± 0.32 for the first, -0.286 ± 0.49 for the second.

Going from TRYTRGSALCTLDGKIYMMK to TSDPCFFCNST, the amyloid nucleation score falls from 1.29 ± 0.4 to -0.381 ± 0.79.

Going from TSECPVWNSFYVQNGSDLSI to TSFSG, the amyloid nucleation score falls from 1.34 ± 0.14 to 0.56 ± 0.38.

Compared with TSGFRKHNVQRRLECTPGDW, TSHSCGYLWCSLV is lower in amyloid nucleation score: 1.14 ± 0.31 for the first, 0.211 ± 0.61 for the second.

TSNSTQLEDLV and TSQTCLEVSRSCCVGMRKSK are within error of each other in amyloid nucleation score: 0.309 ± 0.45 for the first, 0.192 ± 1 for the second.

TSRLHNFATRIIVCYRLLMQ and TSSFEARRRGWLTDEGVLFY are within error of each other in amyloid nucleation score: -0.525 ± 1.1 for the first, 0.784 ± 0.54 for the second.

Compared with TSSTLGLYSHDMPTATHLME, TSSVPGLRSWVWVKQDSDRW is higher in amyloid nucleation score: -0.176 ± 0.41 for the first, 1 ± 0.19 for the second.

TSTTYRLYKLGQFLARPANQ and TTDLYEMLWTFWSINRNSKS are within error of each other in amyloid nucleation score: -0.637 ± 1.1 for the first, -0.071 ± 0.61 for the second.

Going from TTRSIMQCDLGTNPFDNTCS to TTSQFGLGGICPDNSTGLLA, the amyloid nucleation score falls from 0.203 ± 0.41 to -1.31 ± 1.

TVIAEPIRDEQCTIYHRCGV and TVKCYNL are within error of each other in amyloid nucleation score: 0.554 ± 0.38 for the first, 0.268 ± 0.46 for the second.

TVLLSLSYADCSMLWLVRTL and TVSPPLVVFAFRISLRSLRP are within error of each other in amyloid nucleation score: -0.304 ± 1.1 for the first, 1.12 ± 0.4 for the second.

Going from TVTRLSYGMFHQRNRVC to TVVVYIRYRTPMRMVTPPSQ, the amyloid nucleation score rises from -0.267 ± 0.45 to 0.986 ± 0.21.

Going from TVYNDNFVCRILNLDITILF to TWQIFFGIFGFSFY, the amyloid nucleation score falls from 6.957 ± 0.053 to 4.18 ± 0.062.

TWQVMRRYLENPDGSL and TWRNYS are within error of each other in amyloid nucleation score: -1.03 ± 0.62 for the first, -0.279 ± 0.35 for the second.

TWRVP and TWVLSWSIPNCARGFLSWWI are within error of each other in amyloid nucleation score: 0.884 ± 0.55 for the first, 0.672 ± 0.18 for the second.

First: TWVVRVGFMLAYLKQR
Second: TWYPIAFKTGCEMLTERSM
The amyloid nucleation score of the first is lower: 2.63 ± 0.093 for the first, 6.435 ± 0.035 for the second.

Compared with TYEMTRMSGIKSSLLPREFW, TYGVLVNIGGWIDTFGWKLK is higher in amyloid nucleation score: 1.52 ± 0.17 for the first, 6.662 ± 0.049 for the second.

TYHCN and TYTKFISILRSALSLMYLAS are within error of each other in amyloid nucleation score: 0.765 ± 0.43 for the first, 0.972 ± 0.67 for the second.

Going from TYVCDNTESYTCLWLL to TYVMPSVVIKNCH, the amyloid nucleation score falls from 7.791 ± 0.038 to -0.267 ± 0.79.

TYVYKYLFWSIPCMA and VADHVCFVCRHTLDP are within error of each other in amyloid nucleation score: 0.715 ± 0.66 for the first, -0.317 ± 0.62 for the second.

Going from VAHSVTGFQWHACSREMNFR to VAKRISHGIQLSLSCKGTRP, the amyloid nucleation score falls from 4.57 ± 0.12 to 0.138 ± 0.76.

Compared with VAKYLHYMSWVWRFMAWSYV, VALMYFRFQKFDSSSSMHRF is higher in amyloid nucleation score: -1.15 ± 1 for the first, 2.5 ± 0.18 for the second.

Compared with VALQWMG, VALSSVFKEESCRVIRIMES is lower in amyloid nucleation score: 2.2 ± 0.19 for the first, -1.02 ± 0.32 for the second.

Going from VAMVVRGTLYPALCPTYWVS to VANNTGAKSYVFMARNAMCF, the amyloid nucleation score falls from 2.25 ± 0.11 to -0.602 ± 0.49.

Compared with VAQSRLT, VAVVFTKYSSRTYLGVGSVG is higher in amyloid nucleation score: 0.521 ± 0.8 for the first, 4.21 ± 0.07 for the second.

VAYVQCD and VAYYLCAGTSGDTFGKANQS are within error of each other in amyloid nucleation score: 0.035 ± 0.39 for the first, 0.222 ± 0.8 for the second.

Going from VCASYMQFIDHCSKKEVWLN to VCFGIKWSMLCWYFMDGGQQ, the amyloid nucleation score rises from -1.1 ± 0.44 to 2.05 ± 0.16.

First: VCGGVRYYLNTFYIKR
Second: VCNSLCDSYF
The amyloid nucleation score of the first is higher: 7.566 ± 0.054 for the first, -1.28 ± 0.56 for the second.

VCQLQYILRNMLDKTRVSQD and VCRVFIKLYI are within error of each other in amyloid nucleation score: 0.912 ± 0.26 for the first, 1.03 ± 0.21 for the second.

First: VCVIISLHRV
Second: VCWGFSFATHGLWDMAF
The amyloid nucleation score of the first is higher: 4.99 ± 0.058 for the first, -0.32 ± 0.26 for the second.

Going from VCWTNSWVCNSGVLSGVGAA to VCYAGLLAKRLRLVVVSGNV, the amyloid nucleation score falls from 1.41 ± 0.18 to 0.531 ± 0.26.

VCYIPYMLRSHLNALTFLSV and VCYKYRTCYIYISFRSNFST are within error of each other in amyloid nucleation score: -0.492 ± 0.76 for the first, -1.04 ± 1.1 for the second.

VCYRSKASILLYGTPGGVRV and VDANIHWTCNSG are within error of each other in amyloid nucleation score: -0.184 ± 1.1 for the first, 0.322 ± 0.38 for the second.

Going from VDFLLYLVSSTFGRARKWVY to VDGTFYLTYFTTCVQSIFFA, the amyloid nucleation score rises from -0.425 ± 0.27 to 0.558 ± 0.6.

VDGVKTSIKGRNFI and VDLGNYSSYRDFRETRLRPM are within error of each other in amyloid nucleation score: -0.259 ± 0.45 for the first, 0.229 ± 0.39 for the second.

Going from VDLTIVHRGGGAGMGSNRVK to VDMPTSQFVTSTTLGTLVTM, the amyloid nucleation score rises from 0.176 ± 0.24 to 2.32 ± 0.12.

Going from VDPPLGKWGAEGCI to VDRMVDIMCTTKKMIHAF, the amyloid nucleation score rises from 0.484 ± 0.51 to 1.45 ± 0.4.

VDVNVHIAGIWLWFYLWRYV and VDWRNFIGLLNLTDCSDRYH are within error of each other in amyloid nucleation score: -0.768 ± 1.1 for the first, -0.744 ± 0.34 for the second.

With TTGRTYIRLIYIMCVSMNVS the amyloid nucleation score was “inactive”.
In the case of TVAVGVIV, the amyloid nucleation score is reported as “inactive”.
In the case of VCFCQAFYGTRYHKCLVGLF, the amyloid nucleation score is reported as “inactive”.
With VCVLGIGT the amyloid nucleation score was “inactive”.
With VDLAR the amyloid nucleation score was “inactive”.
In the case of VDLCDFCKLVASMVEDGSRE, the amyloid nucleation score is reported as “inactive”.
